Experimental findings from patent publication US20230025129A1 (KYMAB, published 2023) are described below.

Numbering of substitutions follows the chain as printed. In names and notes the source's numbering stands.

In assay [1] the target is T1, mouse matriptase-2 ECD protein his tag (mouse, UniProt Q9DBI0 80-811).
T1 construct: aa 80-811 of Q9DBI0 with C-terminal linker and His tag; also called mouse MTP-2 ECD; moMTP-2
T1 sequence: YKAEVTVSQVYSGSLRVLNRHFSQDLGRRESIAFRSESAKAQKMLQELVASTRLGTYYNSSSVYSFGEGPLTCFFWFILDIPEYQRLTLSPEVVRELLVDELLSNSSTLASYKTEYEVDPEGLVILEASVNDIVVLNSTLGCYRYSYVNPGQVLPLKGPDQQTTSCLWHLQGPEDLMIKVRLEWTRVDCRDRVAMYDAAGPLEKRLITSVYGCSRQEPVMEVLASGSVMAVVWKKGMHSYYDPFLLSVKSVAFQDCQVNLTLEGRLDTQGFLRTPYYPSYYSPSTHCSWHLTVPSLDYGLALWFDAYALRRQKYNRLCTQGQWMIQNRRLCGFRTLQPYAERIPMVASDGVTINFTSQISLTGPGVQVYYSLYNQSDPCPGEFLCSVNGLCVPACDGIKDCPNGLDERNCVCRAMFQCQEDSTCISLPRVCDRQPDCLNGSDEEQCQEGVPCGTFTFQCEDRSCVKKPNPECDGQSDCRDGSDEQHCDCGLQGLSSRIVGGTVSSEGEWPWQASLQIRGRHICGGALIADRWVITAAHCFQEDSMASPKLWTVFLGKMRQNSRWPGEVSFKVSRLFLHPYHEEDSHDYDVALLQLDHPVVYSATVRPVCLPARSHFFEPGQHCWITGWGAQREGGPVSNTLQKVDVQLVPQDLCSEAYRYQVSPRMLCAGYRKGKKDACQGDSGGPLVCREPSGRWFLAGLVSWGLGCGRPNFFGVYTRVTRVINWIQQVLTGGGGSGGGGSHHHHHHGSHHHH
Briefly: HTRF competition with 647-labelled aprotinin for mouse MTP-2 protein. An excerpt:
Aprotinin is a pan serine protease inhibitor and is known to occupy the active site of serine proteases. A HTRF competition assay against labelled aprotinin confirmed that NORI-003, NORI-006, NORI-008 and NORI-011 were binding at or near this same site and competed with aprotinin for binding to human MTP-2 protein. […] This was confirmed by their lack of competition of aprotinin against moMTP-2 while IC50 values in the enzymatic assay were similar to those of NORI-011. […] FIG. 8. Table L.
Antibodies were titrated into HTRF buffer (DPBS (Gibco—14190144) with 0.1% BSA (Sigma—A7906) and potassium fluoride 0.53M (Sigma—60240-250 G)) at 4× conc with a starting concentration of 200 nM. 5 μL/w of antibodies were added to 384-well white plates (Greiner—784904). Purified proteins of huMTP-2 and moMTP-2 were diluted into HTRF buffer (huMTP-2=40 nM and moMTP-2=240 nM) 4× final conc and plate 5 μL/w. Anti-MTP-2 mAb (NORI-037) in molgG1 backbone was then diluted to 1.2 nM 4× final conc with DELFIA Eu-N1 Rabbit Anti-Mouse-IgG antibody (AD0207) at a 1:1000 dilution 4× final conc in HTRF buffer. Finally, dilute 647-labelled Aprotinin (Sigma—A3428) in HTRF buffer to 20 nM 4× final conc and plate 5 μL/w. Incubate plates for 3 hours or more at RT in the dark. Read plate using HTRF 100 flashes protocol on the EnVision plate reader at 1H 2H and 3H. (Ex: 340 nm Em1: 620 nm Em2: 665 nm).
On the technique in general: Time-resolved FRET reads energy transfer from a long-lived donor to a nearby acceptor.

The target of assay [2] is T2, human matriptase-2 mask ECD protein his tag (human, UniProt Q8IU80 78-576).
T2 construct: MTP-2 ECD without the serine protease domain, with C-terminal linker and His tag; also called headless huMTP-2 ECD 78-576 aa; headless human MTP-2 ECD
T2 sequence: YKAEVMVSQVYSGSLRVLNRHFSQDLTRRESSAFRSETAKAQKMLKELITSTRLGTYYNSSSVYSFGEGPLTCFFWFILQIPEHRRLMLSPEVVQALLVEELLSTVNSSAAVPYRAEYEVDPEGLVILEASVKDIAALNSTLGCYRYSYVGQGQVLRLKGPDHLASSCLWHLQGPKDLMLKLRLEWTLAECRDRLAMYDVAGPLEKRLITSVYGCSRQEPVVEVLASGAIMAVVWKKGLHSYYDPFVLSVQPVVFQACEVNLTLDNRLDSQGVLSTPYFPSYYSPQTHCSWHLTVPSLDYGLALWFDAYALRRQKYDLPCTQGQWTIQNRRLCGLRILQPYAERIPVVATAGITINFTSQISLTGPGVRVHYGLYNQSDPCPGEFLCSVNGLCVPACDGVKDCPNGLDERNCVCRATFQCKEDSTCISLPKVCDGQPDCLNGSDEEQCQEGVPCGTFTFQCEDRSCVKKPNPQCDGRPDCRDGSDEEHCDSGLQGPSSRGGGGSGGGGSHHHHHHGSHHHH
Briefly: SPR (Table W). How it is done: (§1) Off-rate screening was performed by surface plasmon resonance (SPR), using a Biacore 8K system (GE Healthcare). Anti-human Fc mix (˜1000 RU) were immobilised in both active and reference channels in HBS-P+ buffer (GE BR100671) pH 7.4. Anti-MTP-2 hulgG4PE antibodies were then captured for 60 sec at 10 μl/min at 1 μg/ml concentration (approximatively 35 and 50 RU were captured) only on the active channel. MTP-2 ECD protein analytes were then injected (at 100, 25, 6.25, 1.56 and 0 nM concentrations) for 120 sec (association time) at 30 μl/min and dissociation monitored for 600 sec. Multiple cycle kinetics mode was used with all 8 channels being used. Reference and background were subtracted from the sensorgrams for each antibody and data was fitted using a 1:1 interaction model in the Biacore evaluation software. Rmax, ka, kd globally fitted, RI=0.
NORI-011, NORI-008, NORI-003 and NORI-006 were all found to have cross-reactive binding to human, mouse, cyno and rat MTP-2 ECD proteins. […] The true KD value for NORI-008 could not be measured accurately for human or mouse MTP-2 due to a very slow off-rate.

Assay [3] has as its target T1, mouse matriptase-2 ECD protein his tag. Description: SPR (Biacore 8K), huIgG4PE captured on anti-human Fc, MTP-2 ECD as analyte, 1:1 fit; off-rate too slow to be determined. The protocol: as §1
On the technique in general: SPR reads the build-up and loss of mass on a sensor chip optically.

The target is the same in assay [4]. Description: SPR (Biacore 8K), huIgG4PE captured on anti-human Fc, MTP-2 ECD as analyte, 1:1 fit; true KD could be < the value shown. How it is done: as §1
Assay [5] concerns the target T2, human matriptase-2 mask ECD protein his …. Briefly: SPR, antibody captured, headless ECD as analyte. The protocol:
as §1
Binding was also assessed using the above SPR method with “headless” huMTP-2 ECD 78-576 aa instead of the full ECD. Headless ECD corresponds to the MTP-2 ECD without the serine protease domain.

B1: NORI-011 (antibody, human IgG4 S228P, lambda)
heavy: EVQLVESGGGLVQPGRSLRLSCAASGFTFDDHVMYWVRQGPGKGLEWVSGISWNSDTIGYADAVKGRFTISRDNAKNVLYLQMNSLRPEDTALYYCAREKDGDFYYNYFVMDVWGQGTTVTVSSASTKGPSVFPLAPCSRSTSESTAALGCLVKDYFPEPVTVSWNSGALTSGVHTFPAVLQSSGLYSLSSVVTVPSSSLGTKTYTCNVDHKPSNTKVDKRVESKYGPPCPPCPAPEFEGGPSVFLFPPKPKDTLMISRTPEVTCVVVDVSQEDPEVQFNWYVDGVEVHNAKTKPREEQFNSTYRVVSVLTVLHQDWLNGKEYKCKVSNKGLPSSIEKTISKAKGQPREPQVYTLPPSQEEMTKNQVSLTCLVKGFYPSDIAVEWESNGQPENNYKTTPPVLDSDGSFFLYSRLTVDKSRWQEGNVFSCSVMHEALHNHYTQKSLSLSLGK
light: QSALTQPPSASGSPGQSVTISCTGTSSDVGFYNFVSWYQQHPDKAPKVMIYEVSKRPSGVPDRFSGSKSGNTASLTVSGLQAEDEADYYCSSYAGSNKVVFGGGTKLTVLGQPKAAPSVTLFPPSSEELQANKATLVCLISDFYPGAVTVAWKADSSPVKAGVETTTPSKQSNNKYAASSYLSLTPEQWKSHRSYSCQVTHEGSTVEKTVAPTECS
notes: human IgG4PE, lambda; NORI-010 with a P124S mutation in the VH domain
Take B1: the IC50 (usually the concentration needed to halve the response being measured) in assay [1] stood at 120 nM. Also, the binding result in assay [2] is reported as “no binding”.

B2: NORI-008 (antibody, human IgG4 S228P, kappa, V domains shown)
VH: QVQLQESGPGLVKPSETLSLTCSVSGGSVSSGRYYWTWIRQPPGKGLEWIGYISNSGNTNYNPSLKSRVTISLDTSKKQFSLSLSAVTAADTAVYYCARGFIYDYWFDPWGQGSLVTVSS
VL: DSQMTQSPSSLSASVGDRVTITCQASQDIDNYLNWYQQRPGKAPKLLIYDASKLETGVPSRFSGSGSGTDFTFTISSLQPEDFATYYCQQYGNLPITFGQGTRLDIKR
notes: human IgG4PE, kappa, in the in vitro assays; a mouse IgG1 format was used in one in vivo study only; also called NORI-008 hulgG4PE; NORI-008 IgG
In assay [1], B2 had a 50% inhibitory concentration (IC50) of 1.42 nM. In addition, in assay [2], the binding result is “no binding”.

B3: NORI-013 (antibody, human IgG4 S228P, lambda, V domains shown)
VH: EVQLVESGGGLIQAGRSLRLSCAASGFTFDEHVIYWVRQIPGKGLEWISSISWKSDIIAYADSVKGRFTISRDNAKNALYLQMNSLRAEDTALYYCAREKDGDFYYYYFAMDVWGQGTTVTVSS
VL: QSALTQPPSASGSPGQSVTLSCTGTSSDVGYYNYVSWYLQHPGKAPKLMIYEVSKRPSGVPDRFSGSKSANTASLTVSGLQAEDEADYYCSSYAGSNKVVFGGGTKVTVLG
notes: human IgG4PE, lambda
B3: the koff (usually the first-order rate constant of dissociation) in assay [3] is at most 1e-05 s⁻¹. The dissociation constant Kd – broadly, the concentration at which binding is half-saturated – in assay [4] was at most 0.949 nM. Also, the binding result in assay [5] was “no binding (tested: analyte up to 100 nM)”.

B4: NORI-014 (antibody, human IgG4 S228P, lambda, V domains shown)
VH: B3 VH with I34M, S52T
VL: B3 VL
notes: human IgG4PE, lambda
Molecule B4 registered a koff in assay [3] of at most 1e-05 s⁻¹. This molecule yielded a Kd in assay [4] of at most 0.83 nM. The binding result in assay [5] is “no binding (tested: analyte up to 100 nM)”.

B5: NORI-006 (antibody, human IgG4 S228P, kappa, V domains shown)
VH: EVQLVESGGGLIKPGRSLRLSCTGSGFTFGDFGLSWFRQAPGKGLEWISFIRSKPYGGTTDYAASVKGRFTISRDDSKNVAYLQMNSLKTEDTAVYYCARNEILTGYYIFDYWGQGTLVTVSS
VL: DIQMTQSPSSLSASLGDRVTITCQASQDINNYLNWYQVQPGKAPKLLIFDASILETGVPSRFSGSGSGTDFSFTISSLQPEDIATYYCQQYDNLPLTFGGGTKVDFKR
notes: human IgG4PE, kappa
For B5, the binding result in assay [2] was “no binding”.

B6: NORI-003 (antibody, human IgG4 S228P, kappa, V domains shown)
VH: EVQLVESGGGLVKPGRSLRLSCTGSGFTFGDFGMSWFRQAPGKGLEWVGFIRSKPYGGTTDYAPSVRGRFSISRDDSKGIVYLQMNSLRTEDTAVYYCSRNEILTGYYIFDYWGQGTLVTVSS
VL: B5 VL with Q27H, N30T, N34I, V38Q, Q39K, K45R, S72T, I83F, D92Y, F106I
notes: human IgG4PE, kappa; NORI-002 with the free cysteine of the VH domain mutated (printed as 'C49C')
Turning to B6, in assay [2], the binding result is “no binding”.
